Patent US20210063414A1, “METHODS FOR PREVENTING AND/OR TREATING BONE LOSS CONDITIONS BY MODULATING IRISIN” (Dana-Farber Cancer Institute, Inc., priority 2018, published 2021)

Tests used:
[1] = target: T1, MLO-Y4 cell surface proteins (Mus musculus, UniProt E9Q9D8); experiment: Crosslinking/co-immunoprecipitation/mass spectrometry (TMT quantitative proteomics) to identify irisin receptors; type: binding; conditions: co-precipitated protein Ankrd35 (E9Q9D8_MOUSE)
T1 construct: endogenous in cells; host or cells: MLO-Y4
T1 sequence (E9Q9D8 1-996): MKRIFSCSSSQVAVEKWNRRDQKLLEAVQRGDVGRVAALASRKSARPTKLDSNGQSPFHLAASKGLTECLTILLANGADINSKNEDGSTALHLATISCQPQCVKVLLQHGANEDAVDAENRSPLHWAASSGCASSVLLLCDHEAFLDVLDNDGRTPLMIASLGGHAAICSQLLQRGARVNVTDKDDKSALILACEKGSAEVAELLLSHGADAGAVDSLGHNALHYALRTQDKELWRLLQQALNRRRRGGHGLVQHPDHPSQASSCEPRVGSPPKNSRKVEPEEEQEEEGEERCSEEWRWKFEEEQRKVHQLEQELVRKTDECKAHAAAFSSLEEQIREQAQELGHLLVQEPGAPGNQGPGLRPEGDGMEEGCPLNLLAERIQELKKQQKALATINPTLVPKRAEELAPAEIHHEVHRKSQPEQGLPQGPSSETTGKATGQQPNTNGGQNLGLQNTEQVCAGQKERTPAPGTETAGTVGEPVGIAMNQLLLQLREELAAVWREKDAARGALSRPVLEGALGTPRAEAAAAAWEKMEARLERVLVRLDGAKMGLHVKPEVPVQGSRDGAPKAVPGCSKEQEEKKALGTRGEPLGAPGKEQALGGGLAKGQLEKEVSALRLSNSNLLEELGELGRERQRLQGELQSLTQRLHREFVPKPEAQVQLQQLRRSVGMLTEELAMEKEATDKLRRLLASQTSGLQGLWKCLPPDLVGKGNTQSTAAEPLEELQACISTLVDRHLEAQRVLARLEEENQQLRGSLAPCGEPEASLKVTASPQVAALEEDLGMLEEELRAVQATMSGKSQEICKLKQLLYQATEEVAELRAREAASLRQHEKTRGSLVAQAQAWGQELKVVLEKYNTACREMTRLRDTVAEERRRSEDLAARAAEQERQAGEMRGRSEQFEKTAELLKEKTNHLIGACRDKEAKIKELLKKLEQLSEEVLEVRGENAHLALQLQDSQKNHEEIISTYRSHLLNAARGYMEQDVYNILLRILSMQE
Method in brief: (§1)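 Relative protein abundance came from 6-plex TMT MS3 quantitation on an Orbitrap Fusion Lumos, after in-gel trypsin digestion of Coomassie-stained SDS-PAGE lanes. Input was a Ni-NTA pulldown (250 mM imidazole elution) of lysates from murine MLO-Y4 cells. These cells were treated on ice with His-tagged irisin or adipsin (10 nM, 20 min) in serum-free medium, then crosslinked with 1.5 mM DTSSP for 30 min.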

[2] = target: T2, MLO-Y4 cell surface proteins (Mus musculus, UniProt P08249); experiment: as above; type: binding; conditions: co-precipitated protein Mdh2 (MDHM_MOUSE)
T2 construct: endogenous in cells; host or cells: MLO-Y4
T2 sequence (P08249 25-338): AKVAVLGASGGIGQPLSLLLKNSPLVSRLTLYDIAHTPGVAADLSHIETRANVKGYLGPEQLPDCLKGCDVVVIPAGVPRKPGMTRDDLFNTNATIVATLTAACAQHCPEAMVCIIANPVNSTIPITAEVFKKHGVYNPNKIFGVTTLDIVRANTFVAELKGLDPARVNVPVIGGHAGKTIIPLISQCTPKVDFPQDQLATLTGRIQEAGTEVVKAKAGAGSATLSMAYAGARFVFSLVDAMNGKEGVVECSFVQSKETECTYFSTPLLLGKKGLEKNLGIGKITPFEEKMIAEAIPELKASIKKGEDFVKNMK
Method in brief: as §1

In the case of adipsin, the TMT signal-to-noise ratio [1] was 314.798 and the TMT signal-to-noise ratio [2] was 2557.03.
